{"source": "the supplement of paper PMC7877785", "assay": "self-splicing fitness, log relative to wild type (ln ratio); higher = more splicing; Tetrahymena group I intron in knt gene, E. coli kanamycin selection, DiMSum; sequences stand for … in CUCUCU…GGAGGGAAAAGUUAUCAGGCAUGCACCUGGUAGCUAGUCUUUAAACCAAUAGAUUGCAUCGGUUUAAAAGGCAAGACCGUCAAAUUGCGGGAAAGGGGUCAACAGCCGUUCAGUACCAAGUCUCAGGGGAAACUUUGAGAUGGCCUUGCAAAGGGUAUGGUAAUAAGCUGACGGACAUGGUCCUAACCACGCAGCCAAGUCCUAAGUCAACAGAUCUUCUGUUGAUAUGGAUGCAGUUCACAGACUAAAUGUCGGUCGGGGAAGAUGUAUUCUUCUCAUAAGAUAUAGUCGGACCUCUCCUUAAUGGGAGCUAGCGGAUGAAGUGAUGCAACACUGGAGCCGCUGGGAACUAAUUUGUAUGCGAAAGUAUAUUGAUUAGUUUUGGAGUACUCGUGGUCG", "outline": "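DiMSum derived fitness as the error-weighted combination of fold changes across replicates, kanamycin versus no kanamycin, normalised to wild type. E. coli BL21(DE3) held the library, which randomised all eight P1ex-region intron nucleotides within the knt kanamycin-resistance gene on pET-22b(+). Six replicate transformations grew overnight at 37°C or 30°C on LB agar with or without 25 μg/mL kanamycin, also containing 100 μg/mL carbenicillin, 50 μM IPTG and 0.2% rhamnose, and pooled colonies were amplicon-sequenced on an Illumina HiSeq 2500.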", "note": "± gives the uncertainty stated by the source."}
{"sequence": "GACAAGCAAUAUUACGUGUA", "values": [{"measurement": "self-splicing fitness (ln)", "setting": "30 °C", "result": "-1.56 ± 0.071"}, {"measurement": "self-splicing fitness (ln)", "setting": "37 °C", "result": "-0.227 ± 0.078"}]}
{"sequence": "UUCCAGCAAUAUUACGCGUC", "values": [{"measurement": "self-splicing fitness (ln)", "setting": "30 °C", "result": "-1.59 ± 0.16"}, {"measurement": "self-splicing fitness (ln)", "setting": "37 °C", "result": "-0.827 ± 0.18"}]}
{"sequence": "AAGGAGCAAUAUUACGAGCG", "values": [{"measurement": "self-splicing fitness (ln)", "setting": "30 °C", "result": "-2.53 ± 0.2"}, {"measurement": "self-splicing fitness (ln)", "setting": "37 °C", "result": "-2.19 ± 0.49"}]}
{"sequence": "CUCGAGCAAUAUUACGCGCU", "values": [{"measurement": "self-splicing fitness (ln)", "setting": "30 °C", "result": "-3.66 ± 0.22"}, {"measurement": "self-splicing fitness (ln)", "setting": "37 °C", "result": "-2.69 ± 0.23"}]}
{"sequence": "ACAAAGCAAUAUUACGGCGU", "values": [{"measurement": "self-splicing fitness (ln)", "setting": "30 °C", "result": "-1.78 ± 0.075"}, {"measurement": "self-splicing fitness (ln)", "setting": "37 °C", "result": "-1.17 ± 0.093"}]}
{"sequence": "UCUGAGCAAUAUUACGAGGU", "values": [{"measurement": "self-splicing fitness (ln)", "setting": "30 °C", "result": "-3.18 ± 0.23"}]}
{"sequence": "CUGCAGCAAUAUUACGUAUG", "values": [{"measurement": "self-splicing fitness (ln)", "setting": "30 °C", "result": "-1.27 ± 0.091"}, {"measurement": "self-splicing fitness (ln)", "setting": "37 °C", "result": "-1.19 ± 0.12"}]}
{"sequence": "GCUCAGCAAUAUUACGGACG", "values": [{"measurement": "self-splicing fitness (ln)", "setting": "30 °C", "result": "-1.11 ± 0.079"}, {"measurement": "self-splicing fitness (ln)", "setting": "37 °C", "result": "-0.474 ± 0.11"}]}
{"sequence": "AGUAAGCAAUAUUACGCGGA", "values": [{"measurement": "self-splicing fitness (ln)", "setting": "30 °C", "result": "-3.49 ± 0.32"}, {"measurement": "self-splicing fitness (ln)", "setting": "37 °C", "result": "-0.326 ± 0.11"}]}
{"sequence": "GCUUAGCAAUAUUACGUUGG", "values": [{"measurement": "self-splicing fitness (ln)", "setting": "30 °C", "result": "-1.59 ± 0.1"}, {"measurement": "self-splicing fitness (ln)", "setting": "37 °C", "result": "-0.814 ± 0.14"}]}
{"sequence": "UACGAGCAAUAUUACGCAUA", "values": [{"measurement": "self-splicing fitness (ln)", "setting": "30 °C", "result": "-3.17 ± 0.19"}, {"measurement": "self-splicing fitness (ln)", "setting": "37 °C", "result": "-0.975 ± 0.13"}]}
{"sequence": "UAACAGCAAUAUUACGAGUC", "values": [{"measurement": "self-splicing fitness (ln)", "setting": "30 °C", "result": "-3.74 ± 0.23"}, {"measurement": "self-splicing fitness (ln)", "setting": "37 °C", "result": "-2.05 ± 0.22"}]}
{"sequence": "GUAAAGCAAUAUUACGGUAG", "values": [{"measurement": "self-splicing fitness (ln)", "setting": "30 °C", "result": "-0.977 ± 0.054"}, {"measurement": "self-splicing fitness (ln)", "setting": "37 °C", "result": "-1.37 ± 0.099"}]}
{"sequence": "AUGGAGCAAUAUUACGAGGU", "values": [{"measurement": "self-splicing fitness (ln)", "setting": "30 °C", "result": "-2.74 ± 0.2"}, {"measurement": "self-splicing fitness (ln)", "setting": "37 °C", "result": "-3.38 ± 0.31"}]}
{"sequence": "ACGCAGCAAUAUUACGAGCC", "values": [{"measurement": "self-splicing fitness (ln)", "setting": "30 °C", "result": "-2.97 ± 0.2"}, {"measurement": "self-splicing fitness (ln)", "setting": "37 °C", "result": "-1.84 ± 0.17"}]}
{"sequence": "GCUUAGCAAUAUUACGCCUA", "values": [{"measurement": "self-splicing fitness (ln)", "setting": "30 °C", "result": "-2.32 ± 0.28"}, {"measurement": "self-splicing fitness (ln)", "setting": "37 °C", "result": "-1.05 ± 0.22"}]}
{"sequence": "AACGAGCAAUAUUACGUAGA", "values": [{"measurement": "self-splicing fitness (ln)", "setting": "30 °C", "result": "-2.99 ± 0.12"}, {"measurement": "self-splicing fitness (ln)", "setting": "37 °C", "result": "-2.43 ± 0.17"}]}
{"sequence": "UGGGAGCAAUAUUACGCGUG", "values": [{"measurement": "self-splicing fitness (ln)", "setting": "30 °C", "result": "-2.51 ± 0.12"}, {"measurement": "self-splicing fitness (ln)", "setting": "37 °C", "result": "-1.67 ± 0.12"}]}
{"sequence": "UCAGAGCAAUAUUACGGCCU", "values": [{"measurement": "self-splicing fitness (ln)", "setting": "30 °C", "result": "-2.39 ± 0.34"}, {"measurement": "self-splicing fitness (ln)", "setting": "37 °C", "result": "-2.73 ± 0.31"}]}
{"sequence": "CAAAAGCAAUAUUACGAUGC", "values": [{"measurement": "self-splicing fitness (ln)", "setting": "30 °C", "result": "-3.49 ± 0.19"}, {"measurement": "self-splicing fitness (ln)", "setting": "37 °C", "result": "-2.99 ± 0.32"}]}
{"sequence": "CAGCAGCAAUAUUACGGUCU", "values": [{"measurement": "self-splicing fitness (ln)", "setting": "30 °C", "result": "-2.87 ± 0.13"}, {"measurement": "self-splicing fitness (ln)", "setting": "37 °C", "result": "-0.712 ± 0.1"}]}
{"sequence": "UGUCAGCAAUAUUACGCCAG", "values": [{"measurement": "self-splicing fitness (ln)", "setting": "30 °C", "result": "-1.31 ± 0.1"}, {"measurement": "self-splicing fitness (ln)", "setting": "37 °C", "result": "-0.7 ± 0.12"}]}
{"sequence": "GUGCAGCAAUAUUACGCUCG", "values": [{"measurement": "self-splicing fitness (ln)", "setting": "30 °C", "result": "-0.5 ± 0.091"}, {"measurement": "self-splicing fitness (ln)", "setting": "37 °C", "result": "-0.883 ± 0.13"}]}
{"sequence": "CCAAAGCAAUAUUACGCGUG", "values": [{"measurement": "self-splicing fitness (ln)", "setting": "30 °C", "result": "-1.93 ± 0.067"}, {"measurement": "self-splicing fitness (ln)", "setting": "37 °C", "result": "-1.26 ± 0.066"}]}
{"sequence": "CGAGAGCAAUAUUACGAUCG", "values": [{"measurement": "self-splicing fitness (ln)", "setting": "30 °C", "result": "-2.87 ± 0.43"}]}
{"sequence": "CAAGAGCAAUAUUACGACGG", "values": [{"measurement": "self-splicing fitness (ln)", "setting": "30 °C", "result": "-0.504 ± 0.087"}, {"measurement": "self-splicing fitness (ln)", "setting": "37 °C", "result": "0.00208 ± 0.14"}]}
{"sequence": "UGAGAGCAAUAUUACGGUUU", "values": [{"measurement": "self-splicing fitness (ln)", "setting": "30 °C", "result": "-2.16 ± 0.4"}]}
{"sequence": "UUGCAGCAAUAUUACGUUCC", "values": [{"measurement": "self-splicing fitness (ln)", "setting": "37 °C", "result": "-2.16 ± 0.27"}]}
{"sequence": "CGAUAGCAAUAUUACGUCGG", "values": [{"measurement": "self-splicing fitness (ln)", "setting": "30 °C", "result": "-1.16 ± 0.11"}, {"measurement": "self-splicing fitness (ln)", "setting": "37 °C", "result": "-0.171 ± 0.11"}]}
{"sequence": "UUCAAGCAAUAUUACGAGUC", "values": [{"measurement": "self-splicing fitness (ln)", "setting": "30 °C", "result": "-3.3 ± 0.31"}, {"measurement": "self-splicing fitness (ln)", "setting": "37 °C", "result": "-1.93 ± 0.26"}]}
{"sequence": "UAACAGCAAUAUUACGGCAC", "values": [{"measurement": "self-splicing fitness (ln)", "setting": "30 °C", "result": "-2.47 ± 0.13"}, {"measurement": "self-splicing fitness (ln)", "setting": "37 °C", "result": "-1.63 ± 0.14"}]}
{"sequence": "UUUCAGCAAUAUUACGAAAG", "values": [{"measurement": "self-splicing fitness (ln)", "setting": "30 °C", "result": "-3.23 ± 0.24"}, {"measurement": "self-splicing fitness (ln)", "setting": "37 °C", "result": "-1.87 ± 0.22"}]}
{"sequence": "CCAAAGCAAUAUUACGAAGA", "values": [{"measurement": "self-splicing fitness (ln)", "setting": "30 °C", "result": "-3.61 ± 0.27"}, {"measurement": "self-splicing fitness (ln)", "setting": "37 °C", "result": "-2.2 ± 0.22"}]}
{"sequence": "ACGAAGCAAUAUUACGUAGC", "values": [{"measurement": "self-splicing fitness (ln)", "setting": "30 °C", "result": "-3.19 ± 0.17"}, {"measurement": "self-splicing fitness (ln)", "setting": "37 °C", "result": "-1.16 ± 0.14"}]}
{"sequence": "AAUAAGCAAUAUUACGAGCA", "values": [{"measurement": "self-splicing fitness (ln)", "setting": "30 °C", "result": "-1.37 ± 0.2"}, {"measurement": "self-splicing fitness (ln)", "setting": "37 °C", "result": "-0.258 ± 0.2"}]}
{"sequence": "GCAAAGCAAUAUUACGUAUC", "values": [{"measurement": "self-splicing fitness (ln)", "setting": "30 °C", "result": "-2.35 ± 0.082"}, {"measurement": "self-splicing fitness (ln)", "setting": "37 °C", "result": "-1.74 ± 0.076"}]}
{"sequence": "GGGAAGCAAUAUUACGAAAU", "values": [{"measurement": "self-splicing fitness (ln)", "setting": "30 °C", "result": "-3.24 ± 0.19"}, {"measurement": "self-splicing fitness (ln)", "setting": "37 °C", "result": "-2.26 ± 0.22"}]}
{"sequence": "AGAUAGCAAUAUUACGAUAA", "values": [{"measurement": "self-splicing fitness (ln)", "setting": "30 °C", "result": "-2.02 ± 0.11"}, {"measurement": "self-splicing fitness (ln)", "setting": "37 °C", "result": "-1.16 ± 0.11"}]}
